Data reported in patent publication US20240254222A1 (Bayer, published 2024).
Substitutions are numbered along the chain they refer to.

T1: Cyno Semaphorin3A-Sema Domain, TPP-19122 (cynomolgus (Macaca fascicularis), UniProt Q63548 21-569 (rat entry), limits assumed)
T1 construct: produced inhouse
T1 chain: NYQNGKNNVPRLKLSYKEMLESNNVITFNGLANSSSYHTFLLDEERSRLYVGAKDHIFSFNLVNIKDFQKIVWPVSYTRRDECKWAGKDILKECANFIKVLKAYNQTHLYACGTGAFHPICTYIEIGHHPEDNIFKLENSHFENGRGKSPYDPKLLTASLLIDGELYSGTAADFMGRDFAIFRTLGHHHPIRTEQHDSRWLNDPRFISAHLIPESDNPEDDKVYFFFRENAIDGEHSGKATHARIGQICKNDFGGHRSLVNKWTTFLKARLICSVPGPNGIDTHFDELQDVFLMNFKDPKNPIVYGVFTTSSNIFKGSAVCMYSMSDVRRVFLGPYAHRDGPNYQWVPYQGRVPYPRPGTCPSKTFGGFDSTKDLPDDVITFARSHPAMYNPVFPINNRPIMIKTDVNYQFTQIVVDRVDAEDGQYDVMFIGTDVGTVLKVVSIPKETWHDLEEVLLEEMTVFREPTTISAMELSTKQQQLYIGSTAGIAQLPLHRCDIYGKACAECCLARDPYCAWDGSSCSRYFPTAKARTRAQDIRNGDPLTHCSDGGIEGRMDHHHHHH

T2: Rat Semaphorin3A-Sema Domain, TPP-19120 (rat, UniProt Q63548 21-569)
T2 construct: produced inhouse
T2 sequence: T1 chain with Q3A, I126V, E138Q, N139D, F296S, I444V, I489V

B1: TPP-23338 (antibody, human IgG4 S228P, lambda, V domains shown)
VH: EVQLLESGGGLVQPGGSLRLSCAASGFTFSSYAMSWVRQAPGKGLEWVSAIGYGGDTYYADSVKGRFTISRDNSKNTLYLQMNSLRAEDTAVYYCARRDDYTSRDAFDYWGQGTLVTVSS
VL: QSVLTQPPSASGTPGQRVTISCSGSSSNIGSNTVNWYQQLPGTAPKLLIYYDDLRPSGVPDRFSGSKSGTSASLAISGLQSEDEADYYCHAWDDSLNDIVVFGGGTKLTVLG
B2: TPP-15370 (antibody, human IgG1, lambda, V domains shown)
VH: B1 VH with A33G, S35H, Y53T, K64M, Y109V
VL: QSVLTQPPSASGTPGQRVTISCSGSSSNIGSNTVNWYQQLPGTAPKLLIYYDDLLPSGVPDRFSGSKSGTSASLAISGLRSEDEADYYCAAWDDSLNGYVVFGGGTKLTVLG
notes: human IgG1; also called IgG1, hit from panning; parental mAb
B3: TPP-23375 (antibody, human IgG4 S228P, lambda, V domains shown)
VH: B1 VH with S30Y
VL: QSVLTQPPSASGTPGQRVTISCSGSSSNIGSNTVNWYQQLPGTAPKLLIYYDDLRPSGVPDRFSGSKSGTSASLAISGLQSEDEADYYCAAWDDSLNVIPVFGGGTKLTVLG
B4: TPP-23346 (antibody, human IgG4 S228P, lambda, V domains shown)
VH: B1 VH with S30Y, S35L, Y53T
VL: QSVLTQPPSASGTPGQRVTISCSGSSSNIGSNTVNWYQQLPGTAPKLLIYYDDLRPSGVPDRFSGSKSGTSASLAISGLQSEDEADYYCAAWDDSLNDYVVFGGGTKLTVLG
B5: TPP-23340 (antibody, human IgG4 S228P, lambda, V domains shown)
VH: B1 VH
VL: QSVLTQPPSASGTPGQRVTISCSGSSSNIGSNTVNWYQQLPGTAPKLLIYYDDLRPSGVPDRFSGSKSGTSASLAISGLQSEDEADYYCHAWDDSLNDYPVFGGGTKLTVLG
B6: TPP-23373 (antibody, human IgG4 S228P, lambda, V domains shown)
VH: B1 VH with S30Y
VL: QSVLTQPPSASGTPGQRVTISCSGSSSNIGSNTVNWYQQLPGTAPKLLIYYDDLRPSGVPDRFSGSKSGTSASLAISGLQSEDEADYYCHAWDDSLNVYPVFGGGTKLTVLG
B7: TPP-23341 (antibody, human IgG4 S228P, lambda, V domains shown)
VH: B1 VH
VL: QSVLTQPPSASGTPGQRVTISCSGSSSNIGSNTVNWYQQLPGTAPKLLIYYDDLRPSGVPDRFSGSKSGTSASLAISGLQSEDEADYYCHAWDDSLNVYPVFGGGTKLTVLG
B8: TPP-23347 (antibody, human IgG4 S228P, lambda, V domains shown)
VH: B1 VH with S30Y, S35L, Y53T
VL: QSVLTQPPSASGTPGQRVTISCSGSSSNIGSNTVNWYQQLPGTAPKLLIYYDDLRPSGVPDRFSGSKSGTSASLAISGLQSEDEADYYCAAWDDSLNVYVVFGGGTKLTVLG
B9: TPP-23345 (antibody, human IgG4 S228P, lambda, V domains shown)
VH: B1 VH
VL: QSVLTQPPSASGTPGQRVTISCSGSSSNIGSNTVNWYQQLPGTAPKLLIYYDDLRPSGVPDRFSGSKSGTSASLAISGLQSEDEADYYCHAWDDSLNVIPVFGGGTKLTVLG
B10: TPP-15374 (antibody, human IgG1, lambda, V domains shown)
VH: EVQLLESGGGLVQPGGSLRLSCAASGFTFSSYEMNWVRQAPGKGLEWVSGISWNSGSIGYADSVKGRFTISRDNSKNTLYLQMNSLRAEDTAVYYCARSGYSSSWFDPDFDYWGQGTLVTVSS
VL: QSVLTQPPSASGTPGQRVTISCTGSSSNIGAGYDVHWYQQLPGTAPKLLIYGNSNRPSGVPDRFSGSKSGTSASLAISGLRSEDEADYYCSSYAGSNPYVVFGGGTKLTVLG
notes: as for B2
B11: TPP-30788 (antibody, human IgG1, kappa, V domains shown)
VH: EVQLVESGGGLVQPGGSLRLSCAASGFTFSSYYMSWVRQAPGKGLEWVSTIIKSGGYAYYPDSVKDRFTISRDNSKNTLYLQMSSLRAEDTAVYYCVRGGQGAMDYWGQGTTVTVSS
VL: EIVLTQSPATLSLSPGERATLSCRASQSIGDYLHWYQQKPGQAPRLLIKYASQSISGIPARFSGSGSGTDFTLTITSLEPEDFAVYYCQQGYSFPYTFGGGTKLEIKR
notes: prior art, WO 2020/225400; also called BI clone I; Böhringer (BI) Clone I
B12: TPP-30790 (antibody, human IgG1, kappa, V domains shown)
VH: B11 VH with P14L, S84N, R98K
VL: B11 VL with K49Y, T76S
notes: prior art, WO 2020/225400; also called BI clone III; Böhringer (BI) Clone III
B13: TPP-30789 (antibody, human IgG1, kappa, V domains shown)
VH: B11 VH with T28P
VL: B11 VL
notes: prior art, WO 2020/225400; also called BI clone II; Böhringer (BI) Clone II
B14: TPP-30791 (antibody, human IgG1, kappa, V domains shown)
VH: B11 VH with V12L, P14L, Y80N, S84N, R98K
VL: B11 VL with T76S
notes: prior art, WO 2020/225400; also called BI clone IV; Böhringer (BI) Clone IV
B15: TPP-17755 (antibody, human IgG1, lambda, V domains shown)
VH: EVQLLESGGGLVQTGGSLRLSCAASGFTFSDYAMSWVRQAPGKGLEWVSWIYYDSGSKYYADSVKGRFTISRDNSKNTLYLQMNSLRAEDTAVYYCAKLNGDFDYWGQGTLVTVSS
VL: QSVLTQPPSASGTPGQRVTISCSGSSSNIGNNDVSWYQQLPGTAPKLLIYADSHRPSGVPDRFSGSKSGTSASLAISGLRSEDEADYYCGAWDSSLSGYVFGGGTKLTVLG
notes: also called Samsung; Samsung Prior Art F11
B16: TPP-11489 (antibody, human IgG1, lambda)
heavy: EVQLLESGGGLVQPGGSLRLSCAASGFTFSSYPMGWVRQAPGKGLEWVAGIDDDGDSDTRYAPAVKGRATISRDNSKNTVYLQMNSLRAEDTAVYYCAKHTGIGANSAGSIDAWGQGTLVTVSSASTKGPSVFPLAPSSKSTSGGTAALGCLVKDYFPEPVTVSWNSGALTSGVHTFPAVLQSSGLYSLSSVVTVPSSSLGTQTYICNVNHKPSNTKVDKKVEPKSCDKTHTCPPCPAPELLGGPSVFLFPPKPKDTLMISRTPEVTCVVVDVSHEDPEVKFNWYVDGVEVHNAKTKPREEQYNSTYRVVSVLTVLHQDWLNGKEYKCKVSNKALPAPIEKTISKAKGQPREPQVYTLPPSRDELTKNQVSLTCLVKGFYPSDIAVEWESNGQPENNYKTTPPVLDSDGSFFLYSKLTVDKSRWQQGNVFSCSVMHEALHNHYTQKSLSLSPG
light: SYELTQPPSVSVSPGQTARITCSGGGSYTGSYYYGWYQQKPGQAPVTVIYYNNKRPSDIPERFSGSLSGTTNTLTISGVQAEDEADYYCGSADNSGDAFGTGTKVTVLGQPKAAPSVTLFPPSSEELQANKATLVCLISDFYPGAVTVAWKADSSPVKAGVETTTPSKQSNNKYAASSYLSLTPEQWKSHRSYSCQVTHEGSTVEKTVAPTECS
notes: human IgG1; also called Chiome; Chiome Prior Art (hIgG1)
B17: TPP-30792 (antibody, human IgG1, lambda, V domains shown)
V domain 1: EVQLLESGGGLVQPGGSLRLSCAASGFTFRSYAVHWVRQAPGKGLEWVSSTEGSGVGTSYTDSVKGRFTISRDNSKNTLYLQMNSLRAEDTAVYYCARMLGGGNPLDYLDYWGQGTLVTVSS
V domain 2: QSVLTQPPSASGTPGQRVTISCSGSSSNLGEGYDVHWYQQLPGKAPKLLIYYSDFRPSGVSDRFSGSKSGTSASLAISGLQSEDEADYYCAAWDDSLSSQVFGGGTQVTVLG
notes: IgG1; prior art, WO 2020/261281; also called 3H4 Univ Ramot; 3H4 (Ramot) Clon I

Columns and labels:
[1] = molecular target: T3, Human Semaphorin3A-Fc (R&D Systems), TPP-13211 (human); assay: competition ELISA on coated TPP-13211, competitor biotinylated TPP-15370
T3 construct: R&D Systems 1250-S3; also called recombinant human Sema3A-Fc chimera
Protocol: For screening in a competition ELISA setup, human Sema3a (TPP-13211) was coated onto 384-well plates (Greiner bio-one, 781077) with a concentration of 0.5 μg/ml in coating buffer (Carbonate-Basis pH 9.6, Candor 121125) over night at 10° C. After washing the plates 3 times with 50 μl PBS 0.05% Tween the plates were blocked with 50 μl Smart Block® (Candor 113500) for 1 h at 20° C. and washed again 3 times as described.
Subsequently, 20 μl of pre-mixed antibody solution was added to the plates and incubate for 18 h at 10° C. […] The total concentration of the added antibody solution was 0.25 μg/ml. During the incubation time the antibodies bound to the plates in a competitive manner as they compete for the same epitope on the human Sema3A protein.
After subsequent washing with 50 μl PBS 0.05% Tween for 3 times, 20 μl of a Streptavidin-HRP solution (R&D Systems, DY998, 1:200 in PBS 0.05% Tween 10% Smart Block) were added and incubated for 1 h and 20° C. followed by subsequent washing 3 times with 50 μl PBS 0.05% Tween and addition of 20 μl Amplex Red solution (Invitrogen A12222, 1:1000 in NaP-buffer 50 mM pH7.6 with 1:10000 of 30% H2O2). After a final incubation for 20 min at 20° C. the signal was determined using an emission wavelength of 595 nm and excitation of 530 nm.

[2] = molecular target: T3, Human Semaphorin3A-Fc (R&D Systems), …; assay: ELISA, coated Sema3A-Fc, antibody 0.00015-10 ug/ml
Protocol: For the assessment of binding selectivity to Sema3A vs Sema3G, 1 nM recombinant human Sema3A-Fc chimera (R&D Systems) or recombinant human GST—Sema3G (Abnova) were coated on Maxisorb plates, incubated with antibodies in a dose-response curve from 0.00015-10 μg/ml, and the binding of antibodies quantified using HRP coupled anti-human antiserum and chemiluminescent substrate.

[3] = molecular target: T1, Cyno Semaphorin3A-Sema Domain, TPP-19122; assay: SPR, captured antibody, Sema3A domain analyte
Protocol: (§1) To assess the binding kinetics and affinity of anti-Sema3A antibodies as well as their species cross-reactivity profile, binding assays were conducted using surface plasmon resonance (SPR). Binding assays were performed on a Biacore T200 instrument or on a Biacore 8K+ instrument (Cytiva) at 25° C. using assay buffer HBS P+, 300 mM NaCl, 0.75 mM CaCl₂, 2.5 mM MgCl₂, 1 mg/ml BSA, 0.05% NaN₃. Antibodies were captured either via anti-human Fc IgGs (“Human antibody capture kit”, Order No. BR100839, Cytiva) or in case of Fc-tagged analytes by anti-human Fab IgGs (“Human Fab capture kit”, Order No. 28958325, Cytiva) covalently amine coupled to a Series S CM5 sensor chip (Cytiva). The amine coupling was carried out according to the manufacturer's instructions using 1-ethyl-3-(3-dimethylaminopropyl) carbodiimide hydrochloride (EDC), N-hydroxysuccinimide (NHS) and ethanolamine HCl, pH 8.5 (“Amine Coupling Kit” BR-1000-50, Cytiva.). For phage display hits Fc-tagged human and mouse Sema3A was used as analytes in a concentration range from 1.56-200 nM. Human, mouse, cynomolgus, rat, dog and pig monovalent Sema3A domain were used as analytes in a concentration series from […] in multi cycle kinetics mode or in 100 nM for binding analysis only. The sensor surface was regenerated with glycine pH 2.0 after each antigen injection. Obtained sensorgrams were double referenced (subtraction of reference flow cell signal and buffer injection) and were fitted to a 1:1 Langmuir binding model to derive kinetic data using the Biacore T200 Evaluation software.

[4] = molecular target: T2, Rat Semaphorin3A-Sema Domain, TPP-19120; assay: SPR, captured antibody, Sema3A domain analyte
Protocol: as §1

T3 sequence (chain, as listed by the source limits assumed): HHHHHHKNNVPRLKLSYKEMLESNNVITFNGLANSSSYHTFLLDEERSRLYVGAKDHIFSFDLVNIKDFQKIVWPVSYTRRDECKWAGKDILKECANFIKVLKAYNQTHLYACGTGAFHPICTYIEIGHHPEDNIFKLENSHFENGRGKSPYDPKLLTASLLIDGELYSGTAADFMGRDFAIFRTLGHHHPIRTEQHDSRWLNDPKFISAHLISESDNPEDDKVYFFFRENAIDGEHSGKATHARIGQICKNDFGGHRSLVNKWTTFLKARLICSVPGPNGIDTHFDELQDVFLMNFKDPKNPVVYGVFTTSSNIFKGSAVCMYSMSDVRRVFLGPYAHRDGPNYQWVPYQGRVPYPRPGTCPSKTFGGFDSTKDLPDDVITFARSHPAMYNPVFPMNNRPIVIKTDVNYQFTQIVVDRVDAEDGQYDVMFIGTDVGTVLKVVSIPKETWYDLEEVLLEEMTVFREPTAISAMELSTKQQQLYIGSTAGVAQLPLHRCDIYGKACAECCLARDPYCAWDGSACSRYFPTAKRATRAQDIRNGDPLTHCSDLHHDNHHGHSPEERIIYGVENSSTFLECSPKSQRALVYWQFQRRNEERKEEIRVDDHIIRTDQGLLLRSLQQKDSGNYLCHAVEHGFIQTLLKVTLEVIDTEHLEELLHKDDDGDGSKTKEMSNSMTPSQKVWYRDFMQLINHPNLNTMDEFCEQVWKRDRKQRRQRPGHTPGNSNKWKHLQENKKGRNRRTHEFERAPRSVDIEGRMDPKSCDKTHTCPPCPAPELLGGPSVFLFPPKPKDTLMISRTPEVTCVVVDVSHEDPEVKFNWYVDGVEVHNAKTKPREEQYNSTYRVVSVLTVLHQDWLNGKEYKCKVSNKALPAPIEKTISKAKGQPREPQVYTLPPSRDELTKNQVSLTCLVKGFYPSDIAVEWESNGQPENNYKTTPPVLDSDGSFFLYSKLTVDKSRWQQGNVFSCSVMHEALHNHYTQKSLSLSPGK

Binder | VAL norm to TPP-9809 (1 to 1 ratio) [1] | EC50 [2] [nM] | Kd [3] [nM] | VAL norm to TPP-9809 (1 to 5 ratio) [1] | Kd [4] [nM] | binding result [3] | binding result [4]
B1 | 0.33 | 9.6 | 0.042 | – | – | – | –
B2 | 0.67 | – | 40 | 0.54 | 14 | – | –
B3 | 0.3 | 7.7 | 0.045 | 0.16 | – | – | –
B4 | 0.22 | – | 0.061 | 0.13 | – | – | –
B5 | 0.4 | 12.3 | 0.06 | – | – | – | –
B6 | 0.35 | 17.6 | 0.072 | 0.2 | – | – | –
B7 | 0.38 | 21.3 | 0.087 | 0.18 | – | – | –
B8 | 0.3 | 8.4 | 0.054 | 0.16 | – | – | –
B9 | 0.27 | – | 0.062 | 0.08 | – | – | –
B10 | – | – | 46 | – | 9.8 | – | –
B11 | – | 0.15 | 0.078 | – | 0.026 | – | –
B12 | – | 0.08 | 0.077 | – | 0.022 | – | –
B13 | – | 0.1 | 0.079 | – | 0.026 | – | –
B14 | – | 0.08 | 0.057 | – | 0.017 | – | –
B15 | – | – | 14 | – | 5.4 | – | –
B16 | – | – | 63 | – | 33 | – | –
B17 | – | – | – | – | – | no binding | no binding
